B1: CAP-Gly domain-containing linker protein 1 (Homo sapiens), P30622-1 (parent)
chain: MSMLKPSGLKAPTKILKPGSTALKTPTAVVAPVEKTISSEKASSTPSSETQEEFVDDFRVGERVWVNGNKPGFIQFLGETQFAPGQWAGIVLDEPIGKNDGSVAGVRYFQCEPLKGIFTRPSKLTRKVQAEDEANGLQTTPASRATSPLCTSTASMVSSSPSTPSNIPQKPSQPAAKEPSATPPISNLTKTASESISNLSEAGSIKKGERELKIGDRVLVGGTKAGVVRFLGETDFAKGEWCGVELDEPLGKNDGAVAGTRYFQCQPKYGLFAPVHKVTKIGFPSTTPAKAKANAVRRVMATTSASLKRSPSASSLSSMSSVASSVSSRPSRTGLLTETSSRYARKISGTTALQEALKEKQQHIEQLLAERDLERAEVAKATSHVGEIEQELALARDGHDQHVLELEAKMDQLRTMVEAADREKVELLNQLEEEKRKVEDLQFRVEEESITKGDLETQTKLEHARIKELEQSLLFEKTKADKLQRELEDTRVATVSEKSRIMELEKDLALRVQEVAELRRRLESNKPAGDVDMSLSLLQEISSLQEKLEVTRTDHQREITSLKEHFGAREETHQKEIKALYTATEKLSKENESLKSKLEHANKENSDVIALWKSKLETAIASHQQAMEELKVSFSKGLGTETAEFAELKTQIEKMRLDYQHEIENLQNQQDSERAAHAKEMEALRAKLMKVIKEKENSLEAIRSKLDKAEDQHLVEMEDTLNKLQEAEIKVKELEVLQAKCNEQTKVIDNFTSQLKATEEKLLDLDALRKASSEGKSEMKKLRQQLEAAEKQIKHLEIEKNAESSKASSITRELQGRELKLTNLQENLSEVSQVKETLEKELQILKEKFAEASEEAVSVQRSMQETVNKLHQKEEQFNMLSSDLEKLRENLADMEAKFREKDEREEQLIKAKEKLENDIAEIMKMSGDNSSQLTKMNDELRLKERDVEELQLKLTKANENASFLQKSIEDMTVKAEQSQQEAAKKHEEEKKELERKLSDLEKKMETSHNQCQELKARYERATSETKTKHEEILQNLQKTLLDTEDKLKGAREENSGLLQELEELRKQADKAKAAQTAEDAMQIMEQMTKEKTETLASLEDTKQTNAKLQNELDTLKENNLKNVEELNKSKELLTVENQKMEEFRKEIETLKQAAAQKSQQLSALQEENVKLAEELGRSRDEVTSHQKLEEERSVLNNQLLEMKKRESKFIKDADEEKASLQKSISITSALLTEKDAELEKLRNEVTVLRGENASAKSLHSVVQTLESDKVKLELKVKNLELQLKENKRQLSSSSGNTDTQADEDERAQESQIDFLNSVIVDLQRKNQDLKMKVEMMSEAALNGNGDDLNNYDSDDQEKQSKKKPRLFCDICDCFDLHDTEDCPTQAQMSEDPPHSTHHGSRGEERPYCEICEMFGHWATNCNDDETF
B2: Microtubule-associated protein RP/EB family member 1 (Homo sapiens), Q15691 (parent)
chain: MAVNVYSTSVTSDNLSRHDMLAWINESLQLNLTKIEQLCSGAAYCQFMDMLFPGSIALKKVKFQAKLEHEYIQNFKILQAGFKRMGVDKIIPVDKLVKGKFQDNFEFVQWFKKFFDANYDGKDYDPVAARQGQETAVAPSLVAPALNKPKKPLTSSSAAPQRPISTQRTAAAPKAGPGVVRKNPGVGNGDDEAAELMQQVNVLKLTVEDLEKERDFYFGKLRNIELICQENEGENDPVLQRIVDILYATDEGFVIPDEGGPQEEQEEY

Variants of: B1
Conditions: with dctn1_human DCTN1, Q14203
Target sequence in this assay (Q14203 whole entry): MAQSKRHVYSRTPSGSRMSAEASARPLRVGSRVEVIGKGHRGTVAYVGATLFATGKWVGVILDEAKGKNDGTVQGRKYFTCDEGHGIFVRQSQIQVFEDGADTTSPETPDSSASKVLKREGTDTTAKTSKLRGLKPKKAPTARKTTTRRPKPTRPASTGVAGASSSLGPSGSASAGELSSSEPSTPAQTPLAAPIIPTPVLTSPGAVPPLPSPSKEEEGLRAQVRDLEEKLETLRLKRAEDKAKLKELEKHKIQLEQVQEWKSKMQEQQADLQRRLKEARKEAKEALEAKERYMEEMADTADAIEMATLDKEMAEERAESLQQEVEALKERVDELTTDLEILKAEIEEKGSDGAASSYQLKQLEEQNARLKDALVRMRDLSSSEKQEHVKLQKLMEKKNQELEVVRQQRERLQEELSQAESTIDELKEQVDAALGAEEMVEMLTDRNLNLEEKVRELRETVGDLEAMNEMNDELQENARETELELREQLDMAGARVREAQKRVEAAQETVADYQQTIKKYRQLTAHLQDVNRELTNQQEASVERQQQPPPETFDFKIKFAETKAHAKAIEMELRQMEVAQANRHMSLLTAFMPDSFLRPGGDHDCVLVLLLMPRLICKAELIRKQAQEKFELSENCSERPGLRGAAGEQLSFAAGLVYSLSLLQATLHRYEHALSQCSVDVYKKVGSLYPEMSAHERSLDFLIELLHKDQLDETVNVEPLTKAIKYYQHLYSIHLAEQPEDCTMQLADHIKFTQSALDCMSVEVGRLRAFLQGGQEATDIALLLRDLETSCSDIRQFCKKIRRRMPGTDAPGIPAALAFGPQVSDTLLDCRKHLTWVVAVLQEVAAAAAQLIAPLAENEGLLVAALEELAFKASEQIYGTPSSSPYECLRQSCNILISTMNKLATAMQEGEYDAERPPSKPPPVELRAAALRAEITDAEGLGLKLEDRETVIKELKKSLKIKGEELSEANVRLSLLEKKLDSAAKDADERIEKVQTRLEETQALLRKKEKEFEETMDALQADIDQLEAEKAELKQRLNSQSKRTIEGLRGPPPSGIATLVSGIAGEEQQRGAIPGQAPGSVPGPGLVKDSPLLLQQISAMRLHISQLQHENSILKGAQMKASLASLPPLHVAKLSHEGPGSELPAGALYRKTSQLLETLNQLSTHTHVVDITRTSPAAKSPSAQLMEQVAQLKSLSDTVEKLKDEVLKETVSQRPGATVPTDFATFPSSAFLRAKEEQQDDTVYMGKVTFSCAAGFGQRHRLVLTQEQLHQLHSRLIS

Row | Variant | effect of a mutation on the interaction
1 | I1410H | decreasing interaction strength
2 | I1410D | decreasing interaction strength

Variants of: B2
Conditions: with dctn1_human DCTN1, Q14203
Target sequence in this assay (Q14203 whole entry): as above

Row | Variant | effect of a mutation on the interaction
3 | MAVNVYSTSVTSDNLSRHDMLAWINESLQLNLTKIEQLCSGAAYCQFMDMLFPGSIALKKVKFQAKLEHEYIQNFKILQAGFKRMGVDKIIPVDKLVKGKFQDNFEFVQWFKKFFDANYDGKDYDPVAARQGQETAVAPSLVAPALNKPKKPLTSSSAAPQRPISTQRTAAAPKAGPGVVRKNPGVGNGDDEAAELMQQVNVLKLTVEDLEKERDFYFGKLRNIELICQENEGENDPVLQRIVDILYATDEGFVIPDEGGPQEEQEEI [Y268I] | decreasing interaction strength
4 | MAVNVYSTSVTSDNLSRHDMLAWINESLQLNLTKIEQLCSGAAYCQFMDMLFPGSIALKKVKFQAKLEHEYIQNFKILQAGFKRMGVDKIIPVDKLVKGKFQDNFEFVQWFKKFFDANYDGKDYDPVAARQGQETAVAPSLVAPALNKPKKPLTSSSAAPQRPISTQRTAAAPKAGPGVVRKNPGVGNGDDEAAELMQQVNVLKLTVEDLEKERDFYFGKLRNIELICQENEGENDPVLQRIVDILYATDEGFVIPDEGGPQEEQEEG [Y268G] | decreasing interaction strength

— IntAct's records for PubMed 17828277
